Where a chain is given by its changes, count along the chain named.
Tests used:
[1] = target: SLPI binding sites on HuT78 cells (human T cell line) (human); test: competition with 125I-SLPI, intact HuT78 cells, competitor at 2750 nM
[2] = target: SLPI binding sites on U937 cells (human monocyte cell line; intact cells, PMA-induced cells or plasma membranes) (human); test: competition with 125I-SLPI, U937 plasma membranes, competitor at 0 nM
[3] = target: SLPI binding sites on U937 cells (human monocyte cell line; intact cells, PMA-induced cells or plasma membranes) (human); test: competition with 125I-SLPI, U937 plasma membranes, competitor at 0.800 nM
[4] = target: SLPI binding sites on U937 cells (human monocyte cell line; intact cells, PMA-induced cells or plasma membranes) (human); test: competition with 125I-SLPI, intact U937 cells, competitor at 2750 nM
[5] = target: SLPI binding sites on HuT78 cells (human T cell line) (human); test: competition with 125I-SLPI, intact HuT78 cells, competitor at 0 nM
[6] = target: SLPI binding sites on U937 cells (human monocyte cell line; intact cells, PMA-induced cells or plasma membranes) (human); test: competition with 125I-SLPI, U937 plasma membranes, competitor at 83.9 nM
[7] = target: T1, human neutrophil elastase (human, UniProt P08246 30-247, limits assumed); test: BIAcore, immobilized Phe72 mutein, monoS fractions of CHAPS-solubilized U937 membranes; identity by comigration
T1 construct: also called HNE
T1 sequence (looked up): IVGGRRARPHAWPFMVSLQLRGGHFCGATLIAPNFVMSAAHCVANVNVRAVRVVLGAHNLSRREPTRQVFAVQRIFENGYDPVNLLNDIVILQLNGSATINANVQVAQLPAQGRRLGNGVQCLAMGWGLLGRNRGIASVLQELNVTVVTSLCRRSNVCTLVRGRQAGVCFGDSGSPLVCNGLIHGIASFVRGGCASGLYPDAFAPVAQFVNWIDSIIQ
Description: The BIAcore analytical system is available from Pharmacia Biosensor AB, Uppsala, Sweden.

[8] = target: SLPI binding sites on U937 cells (human monocyte cell line; intact cells, PMA-induced cells or plasma membranes) (human); test: competition with 125I-SLPI, U937 plasma membranes, Kd by Cheng-Prusoff
[9] = target: SLPI binding sites on HuT78 cells (human T cell line) (human); test: competition with 125I-SLPI, intact HuT78 cells, competitor at 84 nM
[10] = target: SLPI binding sites on U937 cells (human monocyte cell line; intact cells, PMA-induced cells or plasma membranes) (human); test: competition with 125I-SLPI, intact U937 cells, Kd by Cheng-Prusoff
[11] = target: SLPI binding sites on HuT78 cells (human T cell line) (human); test: competition with 125I-SLPI, intact HuT78 cells, competitor at 8.2 nM
[12] = target: SLPI binding sites on HuT78 cells (human T cell line) (human); test: competition with 125I-SLPI, intact HuT78 cells, Kd by Cheng-Prusoff
[13] = target: SLPI binding sites on U937 cells (human monocyte cell line; intact cells, PMA-induced cells or plasma membranes) (human); test: competition with 125I-SLPI, intact U937 cells, competitor at 84 nM
[14] = target: SLPI binding sites on U937 cells (human monocyte cell line; intact cells, PMA-induced cells or plasma membranes) (human); test: competition with 125I-SLPI, intact U937 cells, competitor at 2.6 nM
[15] = target: SLPI binding sites on U937 cells (human monocyte cell line; intact cells, PMA-induced cells or plasma membranes) (human); test: competition with 125I-SLPI, intact U937 cells, competitor at 0 nM
[16] = target: SLPI binding sites on U937 cells (human monocyte cell line; intact cells, PMA-induced cells or plasma membranes) (human); test: competition with 125I-SLPI, intact U937 cells, competitor at 0.80 nM
[17] = target: SLPI binding sites on HuT78 cells (human T cell line) (human); test: competition with 125I-SLPI, intact HuT78 cells, competitor at 0.80 nM
[18] = target: SLPI binding sites on U937 cells (human monocyte cell line; intact cells, PMA-induced cells or plasma membranes) (human); test: competition with 125I-SLPI, U937 plasma membranes, competitor at 2750 nM
[19] = target: SLPI binding sites on U937 cells (human monocyte cell line; intact cells, PMA-induced cells or plasma membranes) (human); test: competition with 125I-SLPI, U937 plasma membranes, competitor at 8.20 nM
[20] = target: SLPI binding sites on HuT78 cells (human T cell line) (human); test: competition with 125I-SLPI, intact HuT78 cells, competitor at 2.6 nM
[21] = target: SLPI binding sites on U937 cells (human monocyte cell line; intact cells, PMA-induced cells or plasma membranes) (human); test: competition with 125I-SLPI, U937 plasma membranes, competitor at 268 nM
[22] = target: SLPI binding sites on U937 cells (human monocyte cell line; intact cells, PMA-induced cells or plasma membranes) (human); test: competition with 125I-SLPI, intact U937 cells, competitor at 8.2 nM
[23] = target: SLPI binding sites on U937 cells (human monocyte cell line; intact cells, PMA-induced cells or plasma membranes) (human); test: competition with 125I-SLPI, U937 plasma membranes, competitor at 2.56 nM
[24] = target: the molecule itself; test: DSS crosslinking of 2 µM 125I-SLPI in the absence of virus, reducing SDS-PAGE, phosphor imager
Protocol: Incubation was stopped by addition of Laemmli sample buffer. […] The volume of the parallel sample that was loaded on the gel was 5 times larger than the volume of the virus-containing samples.

B1: SLPI mutein Phe 72 (other, human, UniProt P03973 26-132, looked up)
chain: SGKSFKAGVCPPKKSAQCLRYKKPECQSDWQCPGKKRCCPDTCGIKCLDPVDTPNPTRRKPGKCPVTYGQCFMLNPPNFCEMDGQCKRDLKCCMGMCGKSCVSPVKA
notes: mature; also called Phe72 mutein
B1 was tested, and the % *SLPI BOUND [1] was 1%, the CPM *SLPI BOUND [2] was 18700 cpm and the CPM *SLPI BOUND [3] was 12400 cpm. It also gave a % *SLPI BOUND [4] of 5%, a % *SLPI BOUND [5] of 100% and a CPM *SLPI BOUND [6] of 1660 cpm. For the same binder, the binding result [7] was “binds”, the Kd [8] was 1 nM and the % *SLPI BOUND [9] was 36%. The Kd [10] was 2 nM, the % *SLPI BOUND [11] was 57% and the Kd [12] was 3 nM. For the same binder, the % *SLPI BOUND [13] was 4%, the % *SLPI BOUND [14] was 51% and the % *SLPI BOUND [15] was 94%. For the same binder, the % *SLPI BOUND [16] was 77%, the % *SLPI BOUND [17] was 69% and the CPM *SLPI BOUND [18] was 1540 cpm. For the same binder, the CPM *SLPI BOUND [19] was 4260 cpm, the % *SLPI BOUND [20] was 90% and the CPM *SLPI BOUND [21] was 2580 cpm. For the same binder, the % *SLPI BOUND [22] was 22% and the CPM *SLPI BOUND [23] was 8920 cpm.

B2: serine leukocyte protease inhibitor (SLPI) (other, human, UniProt P03973 26-132, looked up)
chain: B1 chain with F72L
modifications: the tracer *SLPI carried I-125 (Bolton Hunter reagent in Examples 12-16, Iodogen in Example 19); positions not given
notes: mature; labelled and cold SLPI are treated as one molecule; also called *SLPI (radiolabelled); cold SLPI
B2: binds [24].

Reference: patent publication US6869925 (Amgen, dated 2005)
